Reference: publication PMC3605417, “An Archaeal Homolog of Proteasome Assembly Factor Functions as a Proteasome Activator” (PLoS ONE, 2013)
Numbering of substitutions follows the chain as printed.

B1: His6-PbaA, Pyrococcus furiosus (natural protein, UniProt Q8U4Q9 1-242, looked up)
chain: MEEKKPVNLVLPEVENAIFIEGYPGVGLVGHIAANFLAKELDMDLIGYVDSLFIPPMSLILEGRPTPPLRFYGKNNIIIAIADIFLPPTLVNEIAKEIVNYLKKVNAEKVISLAGMGIGFFKDTFEVWGIGGSEEENKELESLGVKILKYGSITGMSGKLLWEASRAGLKSYVLLGETFGDRPDPRAAANVVEVLNKMLGLNVSVEPLLKEAEMIEEQLRRMHEQMEEARRKMERQYETMYL
notes: PbaA, Pyrococcus furiosus, locus PF0015, residues 1-242; pET-28b (NdeI/XhoI); Pentamer in solution by sedimentation velocity; also called His6-tagged PbaA; PF0015; source: E. coli BL21(DE3), purified (Ni2+-chelating Sepharose, HiTrap Q HP, Superdex 200); not shown: His6, N-terminal, kept
B2: His6-PbaB, Pyrococcus furiosus (natural protein, UniProt Q8U1R3 1-280, looked up)
chain: MEEGGTRNREEGKMKETTIVVYERPDIYDPIFIEGLPGIGLVGKLAAEHLIQELKAKKFAELYSPHFMHQVLIRKNSVVELMKNEFYYWKSPDDEHRDLIIVTGDTQVPPTDSYGHFEVAGKMLDFVQEFGTREIITMGGYQVPEIQGEPRVLAAVTHEDLIEYYKSKLEGCSVEVIWREDEGGAIVGAAGLLLGIGKLRGMFGISLLGESLGYIVDAKAAKAVLSAVTKILGLEIDMTALDERAKETEEILRKVEEMQRAMMEQVTPKLPHEEEDRGYL
notes: PbaB, Pyrococcus furiosus, locus PF1142, residues 1-280; pET-28b (NdeI/XhoI); Used in SPR (immobilised), ultracentrifugation, electron tomography and the chaperone assay; also called His6-tagged PbaB; PF1142; source: E. coli BL21(DE3), purified (Ni2+-chelating Sepharose, HiTrap Q HP, Superdex 200); not shown: His6, N-terminal, kept
B3: PbaB (non-tagged), Pyrococcus furiosus (natural protein, UniProt Q8U1R3 1-280, looked up)
chain: B2 chain
notes: PbaB, Pyrococcus furiosus, locus PF1142, residues 1-280; Homotetramer in the crystal and by ultracentrifugation; Cloned into NdeI/XhoI of pET-28b; also called non-tagged PbaB; PF1142; source: E. coli BL21(DE3), purified (Ni2+-chelating Sepharose, thrombin cleavage of the His6-tag, HiTrap Q HP, Superdex 200); not shown: His6, N-terminal, cleaved
B4: non-tagged double homoheptameric ring of the proteasome α subunit, Pyrococcus furiosus (complex, UniProt Q8U0L6 1-260, looked up)
chain: MAFVPPQAGYDRAITVFSPDGRLFQVNYAREAVKRGATAVGVKCGEGVVLAVEKRITSRLIEPDSYEKIFQIDDHIAAASSGIIADARVLVNRARLEAQIYRLTYGEPAPVSVIVKKICDLKQMHTQYGGVRPFGAALLMAGINDRPELYETDPSGAYFAWKAVAIGSGRNTAMAIFEEKYRDDMNLEDAIKLALMALAKTMENPSADNIEVAVITVKDKKFRKLTRDEIEKYLSEVLKEVEEEEVKEKEEDYSELDSNY
notes: proteasome α subunit PsmA, Pyrococcus furiosus, locus PF1571, residues 1-260; also called α subunit ring; source: E. coli BL21(DE3), purified (same procedure as the non-tagged 20S proteasome mutants); copies: 14

Key:
[1] = molecular target: the molecule itself; experiment: AUC; sedimentation velocity, 20 μM His6-tagged PbaA or PbaB, 150 mM sodium phosphate (pH 7.5), 100 mM NaCl, 38,000 rpm, 20°C; continuous c(s) distribution (SEDFIT)
[2] = molecular target: T1, His6-tagged wild-type 20S proteasome (αβ1 form), Pyrococcus furiosus (Pyrococcus furiosus, UniProt Q8U0L6 1-260; Q8U4C9 1-196); experiment: cell-based or functional assay
T1 sequence (looked up) 1: B4 chain
T1 sequence (looked up) 2: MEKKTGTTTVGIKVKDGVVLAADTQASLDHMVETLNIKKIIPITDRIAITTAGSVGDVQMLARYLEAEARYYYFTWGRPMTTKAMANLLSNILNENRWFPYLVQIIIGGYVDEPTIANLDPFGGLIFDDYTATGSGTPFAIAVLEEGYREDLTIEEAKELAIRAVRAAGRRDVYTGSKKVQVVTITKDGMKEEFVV

[3] = molecular target: T2, immature 20S proteasome retaining the β subunit propeptide, inactive mutant (α + β1^T7A), Pyrococcus furiosus (Pyrococcus furiosus, UniProt Q8U0L6 1-260; Q8U4C9 1-196, T7A); experiment: SPR; Biacore T100, Sensor Chip NTA, 25°C; His6-tagged PbaB (wild type or CΔ3) immobilised; non-tagged mature (18.8-300 nM) or immature (18.5-296 nM) 20S proteasome or α subunit ring (15.4-246 nM) injected; 10 mM HEPES (pH 7.5), 150 mM NaCl, 0.05% Tween20; 10 μl/min; conditions: both partners purified
T2 construct: proteasome α subunit PsmA, Pyrococcus furiosus, locus PF1571, residues 1-260; proteasome β subunit 1 PsmB1 with its propeptide, Pyrococcus furiosus, locus PF0159, residues 1-196; non-tagged version; source: E. coli BL21(DE3), co-expressed, purified (heat precipitation at 85°C, HiTrap Q HP, Sephacryl S-400); copies: 14 + 14
T2 sequence (looked up) 1: B4 chain
T2 sequence (looked up) 2: T1 sequence (looked up) 2 with T7A

[4] = molecular target: T3, non-tagged mature 20S proteasome, inactive mutant (α + β1^NΔ6/T7A), Pyrococcus furiosus (Pyrococcus furiosus, UniProt Q8U0L6 1-260; Q8U4C9 7-196, T7A); experiment: as above; conditions: both partners purified
T3 construct: proteasome α subunit PsmA, Pyrococcus furiosus, locus PF1571, residues 1-260; proteasome β subunit 1 PsmB1, Pyrococcus furiosus, locus PF0159 (residues 1-196); NΔ6: the six N-terminal (propeptide) residues removed; non-tagged version; source: E. coli BL21(DE3), co-expressed, purified (heat precipitation at 85°C, HiTrap Q HP, Sephacryl S-400); copies: 14 + 14
T3 sequence (looked up) 1: B4 chain
T3 sequence (looked up) 2: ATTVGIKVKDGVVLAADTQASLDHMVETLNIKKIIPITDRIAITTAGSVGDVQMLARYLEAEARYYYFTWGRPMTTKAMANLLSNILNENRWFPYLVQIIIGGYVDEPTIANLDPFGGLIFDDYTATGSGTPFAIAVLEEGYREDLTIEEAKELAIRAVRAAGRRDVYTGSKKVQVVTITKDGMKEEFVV

[5] = molecular target: the molecule itself; experiment: crystal structure; non-tagged PbaB, 2.20 Å, space group C222(1), four molecules per asymmetric unit; 10% PEG10000, 100 mM Bis-Tris (pH 5.0), 50 mM sodium acetate, 5 mM NaAuCl4, 20°C
[6] = molecular target: B2; experiment: SPR; Biacore T100, Sensor Chip NTA, 25°C; His6-tagged PbaB (wild type or CΔ3) immobilised; non-tagged mature (18.8-300 nM) or immature (18.5-296 nM) 20S proteasome or α subunit ring (15.4-246 nM) injected; 10 mM HEPES (pH 7.5), 150 mM NaCl, 0.05% Tween20; 10 μl/min; conditions: both partners purified

## B1
[1]
  stoichiometry N: 5

## B2
[2]
  proteasomal degradation of human α-synuclein (18 μM) by 35 nM wild-type 20S proteasome with 105 nM PbaB, 95°C; fold acceleration by PbaB: ~2.5 fold
  proteasomal degradation of the fluorogenic nonapeptide LFP (10 μM) by 35 nM wild-type 20S proteasome with 175 nM PbaB, 45°C; fold acceleration by PbaB: ~3 fold
[3]
  Kd: 21 nM
[4]
  Kd: 7.8 nM
[1]
  stoichiometry N: 4

## B3
[5]
  stoichiometry N: 4

## B4
[6]
  Kd: 330 nM
